Measurements taken from US20140087995A1 (published 2014).
Numbered stars: 1 amine (or outer) side, 2 acyl side, 3 side chain; on linkers, the order of the positions; unused ones are H or OH. Bridge positions count the residues as written; N and C are the ends. Side chains are listed from the residue outwards. Ends that are not written are not given here. * marks the point of attachment. C20 diacid = O=C(O)CCCCCCCCCCCCCCCCCCC(=O)*; γGlu = O=C(O)[C@H](CCC(=O)[*:2])N[*:1]; AEEA = NCCOCCOCC(=O)O

T1: human calcitonin receptor (human, UniProt P30988 25-474)
T1 sequence (looked up): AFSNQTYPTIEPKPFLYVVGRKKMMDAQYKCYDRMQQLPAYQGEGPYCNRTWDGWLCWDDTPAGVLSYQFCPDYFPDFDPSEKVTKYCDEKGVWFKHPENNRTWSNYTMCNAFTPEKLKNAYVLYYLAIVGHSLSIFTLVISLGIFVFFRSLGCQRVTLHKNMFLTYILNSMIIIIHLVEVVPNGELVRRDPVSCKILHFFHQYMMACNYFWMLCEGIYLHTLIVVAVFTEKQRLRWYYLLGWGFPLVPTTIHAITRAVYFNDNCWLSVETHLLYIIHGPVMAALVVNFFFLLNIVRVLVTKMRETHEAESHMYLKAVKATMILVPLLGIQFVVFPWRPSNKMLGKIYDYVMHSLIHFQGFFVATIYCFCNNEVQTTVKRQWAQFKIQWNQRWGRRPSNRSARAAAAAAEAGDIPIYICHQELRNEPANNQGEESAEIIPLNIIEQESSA


Target: T1, human calcitonin receptor
Test: cell-based or functional assay

hCTR funct. EC50 [pM] | Binder
662 | K([AEEA-γGlu-C20 diacid])CNTATCATQRLANFLRHSSPNFGAIPSSTNVGPNTY-NH2 (disulfide 2-7; N-terminus assumed; SMILES CC[C@H](C)[C@H](NC(=O)[C@H](C)NC(=O)CNC(=O)[C@H](Cc1ccccc1)NC(=O)[C@H](CC(N)=O)NC(=O)[C@@H]1CCCN1C(=O)[C@H](CO)NC(=O)[C@H](CO)NC(=O)[C@H](Cc1c[nH]cn1)NC(=O)[C@H](CCCNC(=N)N)NC(=O)[C@H](CC(C)C)NC(=O)[C@H](Cc1ccccc1)NC(=O)[C@H](CC(N)=O)NC(=O)[C@H](C)NC(=O)[C@H](CC(C)C)NC(=O)[C@H](CCCNC(=N)N)NC(=O)[C@H](CCC(N)=O)NC(=O)[C@@H](NC(=O)[C@H](C)NC(=O)[C@@H]1CSSC[C@H](NC(=O)[C@@H](N)CCCCNC(=O)COCCOCCNC(=O)CC[C@H](NC(=O)CCCCCCCCCCCCCCCCCCC(=O)O)C(=O)O)C(=O)N[C@@H](CC(N)=O)C(=O)N[C@@H]([C@@H](C)O)C(=O)N[C@@H](C)C(=O)N[C@@H]([C@@H](C)O)C(=O)N1)[C@@H](C)O)C(=O)N1CCC[C@H]1C(=O)N[C@@H](CO)C(=O)N[C@@H](CO)C(=O)N[C@H](C(=O)N[C@@H](CC(N)=O)C(=O)N[C@H](C(=O)NCC(=O)N1CCC[C@H]1C(=O)N[C@@H](CC(N)=O)C(=O)N[C@H](C(=O)N[C@@H](Cc1ccc(O)cc1)C(N)=O)[C@@H](C)O)C(C)C)[C@@H](C)O, h-amylin derivative; disulfide bridge and C-terminal amide as told for human amylin; also called compound 50)
3000 | K([γGlu-C20 diacid])CNTATCATQRLANFLRHSSPNFGAIPSSTNVGSETY-NH2 (disulfide 2-7; N-terminus assumed; SMILES CC[C@H](C)[C@H](NC(=O)[C@H](C)NC(=O)CNC(=O)[C@H](Cc1ccccc1)NC(=O)[C@H](CC(N)=O)NC(=O)[C@@H]1CCCN1C(=O)[C@H](CO)NC(=O)[C@H](CO)NC(=O)[C@H](Cc1c[nH]cn1)NC(=O)[C@H](CCCNC(=N)N)NC(=O)[C@H](CC(C)C)NC(=O)[C@H](Cc1ccccc1)NC(=O)[C@H](CC(N)=O)NC(=O)[C@H](C)NC(=O)[C@H](CC(C)C)NC(=O)[C@H](CCCNC(=N)N)NC(=O)[C@H](CCC(N)=O)NC(=O)[C@@H](NC(=O)[C@H](C)NC(=O)[C@@H]1CSSC[C@H](NC(=O)[C@@H](N)CCCCNC(=O)CC[C@H](NC(=O)CCCCCCCCCCCCCCCCCCC(=O)O)C(=O)O)C(=O)N[C@@H](CC(N)=O)C(=O)N[C@@H]([C@@H](C)O)C(=O)N[C@@H](C)C(=O)N[C@@H]([C@@H](C)O)C(=O)N1)[C@@H](C)O)C(=O)N1CCC[C@H]1C(=O)N[C@@H](CO)C(=O)N[C@@H](CO)C(=O)N[C@H](C(=O)N[C@@H](CC(N)=O)C(=O)N[C@H](C(=O)NCC(=O)N[C@@H](CO)C(=O)N[C@@H](CCC(=O)O)C(=O)N[C@H](C(=O)N[C@@H](Cc1ccc(O)cc1)C(N)=O)[C@@H](C)O)C(C)C)[C@@H](C)O, h-amylin derivative; disulfide bridge and C-terminal amide as told for human amylin; also called compound 27) [N^ε1-[(4S)-4-carboxy-4-(19-carboxynonadecanoylamino)butanoyl]-[Arg17,Pro21,Pro27,Glu35]-h-amylin]
